Test results: patent US12139534B2, “Methods and compositions for decreasing soluble immune receptor CD28” (BIOND BIOLOGICS LTD., priority 2018, dated 2024)

B1: CD80-Fc: extracellular domain of CD80 fused to an Fc moiety (protein)
chain: VIHVTKEVKEVATLSCGHNVSVEELAQTRIYWQKEKKMVLTMMSGDMNIWPEYKNRTIFDITNNLSIVILALRPSDEGTYECVVLKYEKDAFKREHLAEVTLSVKADFPTPSISDFEIPTSNIRRIICSTSGGFPEPHLSWLENGEELNAINTTVSQDPETELYAVSSKLDFNMTTNHSFMCLIKYGHLRVNQTFNWNTTKQEHFPDN
modifications: left off: a dimerising Fc or GST
notes: extracellular domain of CD80 fused to an Fc moiety
B2: antibody #1: sCD28 binding (sweeping) antibody; heavy chain SEQ ID NO: 42, light chain SEQ ID NO: 44 (antibody)
heavy: QIQLVQSGPELKKPGETVKISCKASGYTLTNYGMNWVKQAPGKGLKWMGWINTYTGKPTYVDDFKGRFAFSLETSASTAYLQINNLKNEDTATYFCARGDANQQFAYWGQGTLVTVSAAKTTPPSVYPLAPGSAAQTNSMVTLGCLVKGYFPEPVTVTWNSGSLSSGVHTFPAVLQSDLYTLSSSVTVPSSTWPSETVTCNVAHPASSTKVDKKIVPRDCGCKPCICTVPEVSSVFIFPPKPKDVLTITLTPKVTCVVVDISKDDPEVQFSWFVDDVEVHTAQTQPREEQFNSTFRSVSELPIMHQDWLNGKEFKCRVNSAAFPAPIEKTISKTKGRPKAPQVYTIPPPKEQMAKDKVSLTCMITDFFPEDITVEWQWNGQPAENYKNTQPIMDTDGSYFVYSKLNVQKSNWEAGNTFTCSVLHEGLHNHHTEKSLSHSPGK
light: DIKMTQSPSSMYASLGERVTITCKASQDINSYLSWFQQKPGKSPKTLIYRANRLVDGVPSRFSGSGSGQDYSLTISSLEYDDMGIYYCLQYDEFPPTFGAGTKLELKRADAAPTVSIFPPSSEQLTSGGASVVCFLNNFYPKDINVKWKIDGSERQNGVLNSWTDQDSKDSTYSMSSTLTLTKDEYERHNSYTCEATHKTSTSPIVKSFNRNEC
B3: antibody #3: sCD28 binding (sweeping) antibody; heavy chain SEQ ID NO: 50, light chain SEQ ID NO: 52 (antibody)
heavy: EVQLQQFGAELVKPGASVKISCKASGYTFTDYNMDWVKQSHGKSLEWIGDINPNYDSTAYNQKFMGKATLTVDKSSNTAYMELRSLTSEDTAVYYCARSSPYYDSNHFDYWGQGTSLTVSSAKTTPPSVYPLAPGSAAQTNSMVTLGCLVKGYFPEPVTVTWNSGSLSSGVHTFPAVLQSDLYTLSSSVTVPSSTWPSETVTCNVAHPASSTKVDKKIVPRDCGCKPCICTVPEVSSVFIFPPKPKDVLTITLTPKVTCVVVDISKDDPEVQFSWFVDDVEVHTAQTQPREEQFNSTFRSVSELPIMHQDWLNGKEFKCRVNSAAFPAPIEKTISKTKGRPKAPQVYTIPPPKEQMAKDKVSLTCMITDFFPEDITVEWQWNGQPAENYKNTQPIMDTDGSYFVYSKLNVQKSNWEAGNTFTCSVLHEGLHNHHTEKSLSHSPGK
light: QIVLTQSPAIMSASPGEKVTMTCSARSSINYMHWFQQKPGTSPKRWIYDTSKLASGVPARFSGSGSGTSYSLTISNMEAEDAATYYCHQRNSYPFTFGSGTKLEIKRADAAPTVSIFPPSSEQLTSGGASVVCFLNNFYPKDINVKWKIDGSERQNGVLNSWTDQDSKDSTYSMSSTLTLTKDEYERHNSYTCEATHKTSTSPIVKSFNRNEC

Experiments:
[1] = test system: Jurkat T cell line; test: Soluble CD28 generation by PHA activated Jurkat T cell line, CD28 ELISA; type: cell-based, human; conditions: PHA 1-4 μg/mL, TAPI-1 and GM6001 cocktail 0.5-2 μM
Protocol: (§1) ELISA—Commercial ELISA kits were used for quantitation of the amount of human interferon-gamma (Biolegend, Cat. No. 430103), human interleukin 2 (Biolegend, Cat. No. 431802), human interleukin 6 (Biolegend, Cat. No. 430502), human interleukin 10 (Biolegend, Cat. No. 430603), human […] beta 1 (Biolegend, Cat. No. 436708), human interleukin beta 1 (Biolegend, Cat. No. 437004) and human CD28 (R&D system, Cat. No. DY342). Cell Proliferation and viability (MTT assay) was conducted according to manufacturer instructions (Roche, cat #11465007001). Kynurenine (IDO activity) ELISA kit was conducted according to manufacturer instructions (ImmuSmo Cat #BA E-2200).
(§2) Protease Inhibitors—Protease inhibitors were added at the indicated concentrations at the start of each experiment. In week long assays another portion of the inhibitors was added after 3 days at the final concentration. […] Where mentioned the protease cocktail was composed with a mixture of TAPI-1 and GM6001 at equimolar ratio.
(§3) PHA activation of CD4 T cells or Jurkat T cell line for the generation of soluble CD28—1×10^5 Jurkat cells or CD4 T cells were incubated with the indicated concentration of Phytohemagglutinin (Sigma, Cat. No. L8902) and various protease inhibitors for additional 5 (Jurkat) or 7 days (CD4 T cells).

[2] = test system: human CD4 T cells; test: Soluble CD28 generation by PHA activated CD4 T cells, CD28 ELISA; type: cell-based; conditions: PHA 1-4 μg/mL, TAPI-1 and GM6001 cocktail 0.5-2 μM
Protocol: as §1, §2, §3

[3] = test system: human PBMCs; test: Soluble CD28 generation by SEB or CMV stimulated PBMCs, human CD28 ELISA; type: cell-based; conditions: for amount of sCD28 in culture: PBMCs stimulated with SEB or CMV, TAPI-1 and GM6001 protease inhibitor cocktail; for sCD28 levels detected with antibodies of the invention: stimulated cells with protease inhibitors, sandwich ELISA
Protocol: as §1, §2
SEB or CMV activation of PBMCs for the generation of soluble CD28—0.3×10^6 PBMCs were stimulated with 0.5 ng/mL SEB (Sigma, Cat. No. S4881) for 5-7 days at 37° C. with/without the indicated concentration of various protease inhibitors in 48 well plate. Alternatively, 0.1×10^6 PBMCs were stimulated with 0.5 ng/mL SEB in 96 well plate format assay. For CMV stimulation 0.5×10^6 PBMCs were stimulated with 0.5 μg/mL CMV peptivator (Milteny Biotec, Cat. No. 130-093-435) for 2-5 days at 37° C. with/without the indicated concentration of various protease inhibitors in a 96 well plate. For continuous shedding experiments PBMC were stimulated with SEB or CMV in 24 well plate for 24 hr, cells were taken and washed three times with RPMI without stimulant and plated again in a 96 well plate. Samples were taken at indicated times and put under freezing conditions until examination for soluble CD28.

[4] = test system: isolated CD3 human T cells; test: CD3 T cells stimulation with anti-CD3 OKT3, IFN gamma secretion; type: cell-based; conditions: for IFNγ secretion (agonism): anti-CD3 stimulation, CD28.2 2.0 μg/mL, antibodies 0.1-10 μg/mL
Protocol: T cells stimulation with OKT3—0.1×10^6 isolated CD3 T cells (from healthy donors) were stimulated with indicated amount of anti-CD3 clone OKT3 for 48-72 hr at 37° C. When stated recombinant human CD80-Fc (2 μg/mL, R&D system) was added in soluble form. Antibodies to CD28 or controls were added at the indicated concentration in soluble form.
CD80 is one of the two main ligands for mCD28 along with CD86. The extracellular domain of CD80 fused to an Fc moiety has been used as an immune stimulatory molecule and is under investigation as a cancer therapy. In order to examine the effect of sCD28 on CD80-Fc efficacy, isolated CD3 human T cells were stimulated with plate bound anti-CD3 antibody (OKT3, 2 μg/mL) in the presence of 2 μg/mL soluble recombinant human CD80-Fc.

[5] = target: T1, mCD28 (Homo sapiens, UniProt P10747); test: FACS binding to mCD28 on naïve CD3 T cells; conditions: antibody 20 μg/mL
T1 construct: expressed in transfected cells
Protocol: Flow Cytometry—Generally, cells were kept on ice during all steps. Prior to staining, 5×10^5 cells were blocked with 50 μg/mL human IgG (Sigma, Cat. No. 14506) in FACS buffer (PBS with 0.1% BSA) for 15 min. Antibodies were used at concentrations recommended by the manufacturer and incubated for 30 min. in the dark. Incubations were done in a volume of 100 μL in 96-well U bottom plates. Cells were washed twice with 200 μL of FACS buffer and transferred to FACS tubes in 150 μL of FACS buffer for analysis. Cells were analyzed on a Gallios Flow Cytometer (Beckman Coulter) using the Kaluza for Gallios Flow Cytometry Acquisition Software.
Lastly, the ability of antibodies #1-3 to bind to mCD28 at all was examined. While it is not essential that a sCD28 antibody not bind mCD28 it is advantageous. Such an antibody could be used for specific detection of the soluble protein, and if used therapeutically would have no effect on the membranal form. Naïve isolated CD3 T cells were evaluated by FACs to assay mCD28 binding. Cells were incubated with antibodies #1-3 (20 μg/mL dark grey histograms) or isotype controls (mIgG, 20 μg/mL, light grey histograms). Binding detection was performed with Alexa Fluor 647-conjugated goat anti mouse secondary antibody.

[6] = target: T2, recombinant human CD28 (Homo sapiens, UniProt P10747); test: Direct CD28 ELISA on recombinant human CD28; type: binding
T2 construct: recombinant human CD28 lacking the transmembrane and cytoplasmic domains; purchased R&D 342-CD

[7] = target: T1, mCD28; test: CD86 blocking FACS on HEK293 cells stably transfected with human CD28; type: binding; conditions: CD86-Fc 5 μg/mL; antibody 20 μg/mL
Protocol: CD86 blocking FACS—0.5×10^6 HEK293 cells stably transfected with human CD28 were incubated with 5 μg/mL CD86-Fc (R&D systems, Cat. No. 141-B2) without or with anti CD28 antibodies (20 μg/mL) for 30 min in room temperature. Cells were washed and taken for secondary binding using anti-human heavy and light chains antibody conjugated to fluorophore at 1:5000 dilution for 20 min on ice.

[8] = test system: sCD28; test: Simulated sweeping of soluble CD28 from plasma with antibody coated magnetic beads; design: species or system human; conditions: for sCD28 levels in plasma after beads: about 1.5 μg on beads
Protocol: Simulated sweeping of soluble CD28 from plasma of cancer patient. Antibodies or recombinant proteins were coated on tosyl-activated magnetic beads (Invitrogen, Cat. No. DY-14203) as described by manufacturer protocol. […] The mixture was incubated in a thermomixer for 2 hr, 1000 RPM at 37° C., followed by removal of the beads using a DynaMag magnet (Invitrogen, Cat. No. 12321D) and the samples were examined using CD28 specific ELISA.
Varying amounts (0.125-2 μg) of antibodies #1 and #2 were loaded onto tosyl-activated magnetic beads according to the manufacturer's protocol (Thermo Fisher Scientific). The loaded beads were then added to plasma samples from a cancer patient, and the mixture was incubated in a thermomixer at 37° C. for 2 hours at 1000 RPM. The beads were isolated and removed from the plasma with a magnet and the amount of sCD28 remaining in the serum was measured by ELISA.
Antibody #1 was further tested on various cancer samples (melanoma, colorectal and ovarian) and compared to three B7 molecules which are known ligands of CD28. About 1.5 μg of antibody #1, CD80, CD86 and ICOSL were each loaded onto tosyl-activated magnetic beads and the beads were mixed with plasma as before. A colorectal sample (FIG. 16C), as well as two melanoma samples (FIG. 16D-E), an ovarian sample (FIG. 16F) and a sample from a healthy donor (FIG. 16G) were all tested.

Row | Molecule | amount of sCD28 in supernatant [1] | amount of sCD28 in supernatant [2] | amount of sCD28 in culture [3] | sCD28 levels detected with antibodies of the invention [3] | binding to mCD28 on the cell surface [5] | IFNγ secretion (agonism) [4] | CD86 binding to mCD28 [7] | other results
1 | CC(C)C[C@H](CC(=O)NO)C(=O)N[C@@H](Cc1ccc2ccccc2c1)C(=O)N[C@@H](C)C(=O)NCCN [TAPI-1] | diminished the amount of sCD28 | diminished the amount of sCD28 | diminish the amount of sCD28 in a dose dependent manner | Lower levels of sCD28 |  |  |  | 
2 | CNC(=O)[C@@H](NC(=O)[C@H](CCCc1ccccc1)[C@H](C)N(O)C=O)C(C)(C)C [GI254023X] |  |  |  | Lower levels of sCD28 |  |  |  | sCD28 release from activated immune cells ([3]; PBMCs, SEB 1 ng/mL, inhibitor 0.01-1 μM): almost complete inhibition of sCD28 release
3 | CNC(=O)[C@H](Cc1c[nH]c2ccccc12)NC(=O)[C@@H](CC(=O)NO)CC(C)C [GM6001] | diminished the amount of sCD28 | diminished the amount of sCD28 | diminish the amount of sCD28 in a dose dependent manner |  |  |  |  | 
4 | B1 |  |  |  |  |  |  |  | IFN gamma secretion ([4]; plate bound OKT3 2 μg/mL, CD80-Fc 2 μg/mL): increased IFN gamma secretion
5 | B2 |  |  |  |  | bound mCD28 | no effect on IFN secretion | none of antibody #1 (FIG. 15B), antibody #2 (FIG. 15C), or antibody #3 (FIG. 15D) blocked binding of CD86 to mCD28 | detection compared to CD28.2 [6]: nearly ten-times greater detection; binding to sCD28 ([6]; immobilized recombinant human sCD28): much stronger binding to sCD28; comparison with CD80, CD86 and ICOSL ([8]; about 1.5 μg each on beads): superior to the other three molecules tested; sCD28 levels in plasma after beads ([8]; all cases): at or below the levels observed in the healthy sample; sCD28 levels in plasma after beads ([8]; all samples except one melanoma sample): nearly undetectable levels; removal of sCD28 from plasma ([8]; cancer patient plasma, 0.125-2 μg antibody on beads, 37° C. 2 hours): capable of binding and removing sCD28 from plasma; reduction of sCD28 ([8]; one of the melanoma samples (FIG. 16D)): greater than 50%
6 | B3 |  |  |  |  | do not bind CD28 on the cell surface | no effect on IFN secretion | none of antibody #1 (FIG. 15B), antibody #2 (FIG. 15C), or antibody #3 (FIG. 15D) blocked binding of CD86 to mCD28 | 
